Reference: patent US20220213181A1 (Novartis, published 2022)
Where “and” joins values, the source holds several entries; their conditions need not be identical. Equal values may be shown once.

T1: Rat ANGPTL4(24-405)-FLAG-His6-Avi (rat, UniProt Q6TMA8 24-405, biotin on the C-terminal Avi tag (BirA) where the protein is immobilised)
T1 sequence: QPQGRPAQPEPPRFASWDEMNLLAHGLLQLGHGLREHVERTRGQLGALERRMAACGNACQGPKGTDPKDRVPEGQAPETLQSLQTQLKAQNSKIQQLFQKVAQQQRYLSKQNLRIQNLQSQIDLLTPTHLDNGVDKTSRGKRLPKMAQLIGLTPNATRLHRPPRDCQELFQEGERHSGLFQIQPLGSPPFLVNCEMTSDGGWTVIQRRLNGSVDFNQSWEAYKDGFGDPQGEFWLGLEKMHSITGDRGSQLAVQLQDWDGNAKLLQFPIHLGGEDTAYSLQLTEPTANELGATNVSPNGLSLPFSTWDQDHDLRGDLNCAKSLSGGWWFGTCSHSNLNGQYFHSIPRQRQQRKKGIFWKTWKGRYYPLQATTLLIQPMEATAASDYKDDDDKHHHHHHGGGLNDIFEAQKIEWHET

T2: Human ANGPTL4(26-406)-FLAG-His6-Avi (human, UniProt Q9BY76 24-406, biotin on the C-terminal Avi tag (BirA) where the protein is immobilised)
T2 construct: the text calls it 20 amino acids), then QP, ANGPTL4 26-406 and FLAG-His6-Avi; the signal peptide is left out here; also called full length human ANGPTL4; hANGPTL4
T2 sequence: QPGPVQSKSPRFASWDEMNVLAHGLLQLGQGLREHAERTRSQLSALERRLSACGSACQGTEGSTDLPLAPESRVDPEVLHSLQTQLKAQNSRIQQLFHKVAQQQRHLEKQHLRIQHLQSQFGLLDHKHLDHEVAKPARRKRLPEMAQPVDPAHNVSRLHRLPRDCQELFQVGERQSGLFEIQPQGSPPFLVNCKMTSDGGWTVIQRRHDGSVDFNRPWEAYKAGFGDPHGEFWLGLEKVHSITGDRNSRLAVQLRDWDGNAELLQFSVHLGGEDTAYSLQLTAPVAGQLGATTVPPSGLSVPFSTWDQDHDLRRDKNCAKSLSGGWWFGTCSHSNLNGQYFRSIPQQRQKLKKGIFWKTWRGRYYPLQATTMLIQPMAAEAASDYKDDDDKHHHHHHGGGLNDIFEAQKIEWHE

T3: Mouse ANGPTL4(26-410)-FLAG-His6-Avi (mouse, UniProt Q9Z1P8 24-410, biotin on the C-terminal Avi tag (BirA) where the protein is immobilised)
T3 sequence: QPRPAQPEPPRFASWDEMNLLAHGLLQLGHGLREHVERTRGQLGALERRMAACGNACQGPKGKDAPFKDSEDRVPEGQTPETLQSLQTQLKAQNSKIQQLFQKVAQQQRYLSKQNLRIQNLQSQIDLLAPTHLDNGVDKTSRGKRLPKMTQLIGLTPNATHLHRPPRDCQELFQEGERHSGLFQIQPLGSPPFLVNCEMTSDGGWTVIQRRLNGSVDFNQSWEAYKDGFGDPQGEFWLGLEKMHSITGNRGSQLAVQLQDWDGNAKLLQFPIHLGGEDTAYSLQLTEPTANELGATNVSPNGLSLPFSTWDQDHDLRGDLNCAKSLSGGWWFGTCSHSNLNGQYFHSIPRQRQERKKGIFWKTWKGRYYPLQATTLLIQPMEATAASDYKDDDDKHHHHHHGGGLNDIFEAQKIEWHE

B1: NEG276-LALA (antibody, human IgG1, kappa, L234A L235A)
heavy: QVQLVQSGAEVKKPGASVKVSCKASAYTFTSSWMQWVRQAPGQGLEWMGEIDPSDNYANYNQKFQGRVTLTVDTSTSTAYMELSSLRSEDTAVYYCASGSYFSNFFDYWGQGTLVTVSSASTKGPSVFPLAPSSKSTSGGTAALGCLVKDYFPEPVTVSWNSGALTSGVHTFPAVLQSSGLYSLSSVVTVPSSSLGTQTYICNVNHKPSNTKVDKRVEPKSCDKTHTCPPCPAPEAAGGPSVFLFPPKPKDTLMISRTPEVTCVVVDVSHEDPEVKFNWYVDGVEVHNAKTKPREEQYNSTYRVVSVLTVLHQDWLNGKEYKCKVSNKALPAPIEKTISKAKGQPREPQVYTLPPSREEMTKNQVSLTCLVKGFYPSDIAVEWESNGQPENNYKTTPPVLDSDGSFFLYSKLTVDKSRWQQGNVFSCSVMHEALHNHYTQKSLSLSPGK
light: EIVMTQSPATLSVSPGERATLSCKASQDIGSNLNWLQQKPGQAPRRLIYAVSNRGPGIPARFSGSRSGSEYTLTISSLQSEDFAVYYCLQYASSPWTFGQGTKVEIKRTVAAPSVFIFPPSDEQLKSGTASVVCLLNNFYPREAKVQWKVDNALQSGNSQESVTEQDSKDSTYSLSSTLTLSKADYEKHKVYACEVTHQGLSSPVTKSFNRGEC
B2: NEG278 (antibody, human IgG1, kappa, V domains shown)
VH: QVQLVQSGAEVKKPGASVKVSCKASAYTFTSSWMQWVRQAPGQGLEWMGEIDPSDNYANYNQKFQGRVTLTVDTSTSTAYMELSSLRSEDTAVYYCASGSYFSNFFDYWGQGTLVTVSS
VL: EIVMTQSPATLSVSPGERATLSCKASQDIGSNLNWLQQKPGQAPRRLIYAASVREPGIPARFSGSRSGSEYTLTISSLQSEDFAVYYCLQYASSPWTFGQGTKVEIKR
notes: humanized, hIgG1/kappa, parental antibody 19C16

Tests used:
[1] = target: T1, Rat ANGPTL4(24-405)-FLAG-His6-Avi; experiment: Octet (ForteBio) kinetics, biotinylated antigen on streptavidin sensor, IgG in solution; Octet kinetics, rat ANGPTL4 on the sensor, antibody up to 25 nM; run 1
[2] = target: T1, Rat ANGPTL4(24-405)-FLAG-His6-Avi; experiment: Octet (ForteBio) kinetics, biotinylated antigen on streptavidin sensor, IgG in solution; Octet kinetics; run 3 on rat ANGPTL4
[3] = target: T2, Human ANGPTL4(26-406)-FLAG-His6-Avi; experiment: Octet (ForteBio) kinetics, biotinylated antigen on streptavidin sensor, IgG in solution
[4] = target: T3, Mouse ANGPTL4(26-410)-FLAG-His6-Avi; experiment: as above
[5] = target: T3, Mouse ANGPTL4(26-410)-FLAG-His6-Avi; experiment: Octet (ForteBio) kinetics, biotinylated antigen on streptavidin sensor, IgG in solution; Octet kinetics, mouse ANGPTL4 on the sensor, antibody up to 25 nM; run 1
[6] = target: T3, Mouse ANGPTL4(26-410)-FLAG-His6-Avi; experiment: Octet (ForteBio) kinetics, biotinylated antigen on streptavidin sensor, IgG in solution; Octet kinetics, mouse ANGPTL4 on the sensor, antibody up to 25 nM; run 2
[7] = target: T2, Human ANGPTL4(26-406)-FLAG-His6-Avi; experiment: Octet (ForteBio) kinetics, biotinylated antigen on streptavidin sensor, IgG in solution; upper limit by the footnote
Protocol: Dissociation constants (KD) were determined for selected antibodies of the invention by using an Octet (ForteBio) kinetic binding assay. ForteBio 10× Kinetics Buffer (ForteBio, catalog number 18-5032) was diluted 10-fold with DPBS (Life Technologies, catalog number 14190-136), and the resulting solution was added (0.2 ml per well) to a 96-well plate (Greiner, catalog number 65520). Streptavidin sensors (ForteBio, catalog number 18-5020) were immersed in the solution and equilibrated for at least 10 min at room temperature. In a second 96-well plate (Greiner, catalog number 65520), sensors were washed in 1× Kinetics buffer, and then immersed in 200 ul of 25 nM biotinylated human ANGPTL4 or a biotinylated reference protein (for background subtraction) for 1000 sec at […] room temperature. […] The sensors were then transferred to a well containing 200 μl 1× Kinetics buffer, and antibody dissociation was monitored for 1200 seconds. Background-corrected association and dissociation curves were globally fitted by Octet Software (ForteBio) to generate association (kₐ) and dissociation (kd) rate constants, which in turn were used to calculate equilibrium dissociation constants (KD).

Binder | Kd [1] [nM] | koff [1] [s⁻¹] | kon [1] [M⁻¹ s⁻¹] | Kd [2] [nM] | koff [2] [s⁻¹] | kon [2] [M⁻¹ s⁻¹] | Kd [3] | koff [3] | kon [3] | Kd [4] [nM] | Kd [5] [nM] | koff [5] [s⁻¹] | kon [5] [M⁻¹ s⁻¹] | koff [6] [s⁻¹] | kon [6] [M⁻¹ s⁻¹] | Kd [7] [nM]
B1 | 7.47 | 0.0012 | 160000 | 5.53 | 0.00028 | 52000 | 0.014 nM and 0.017 nM and ≤ 0.012 nM and 0.01 nM | 5.9e-06 s⁻¹ and 6e-06 s⁻¹ and 7e-06 s⁻¹ | 410000 M⁻¹ s⁻¹ and 360000 M⁻¹ s⁻¹ and 430000 M⁻¹ s⁻¹ and 680000 M⁻¹ s⁻¹ | 4.15 | 8.25 | 0.0029 | 360000 | 0.0018 | 430000 | –
B2 | – | – | – | – | – | – | – | – | – | – | – | – | – | – | – | ≤ 0.017
